Experimental data taken from the DeepSol protein solubility set.

Test: soluble on expression in E. coli; label from the status in PepcDB or PDB records

Sequence	soluble on expression in E. coli
MELWRQCTHWLIQCRVLPPSHRVTWEGAQVCELAQALRDGVLLCQLLNNLLPQAINLREVNLRPQMSQFLCLKNIRTFLSTCCEKFGLKRSELFEAFDLFDVQDFGKVIYTLSALSWTPIAQNKGIMPFPTEDSALNDEDIYSGLSDQIDDTAEEDEDLYDCVENEEAEGDEIYEDLMRLESVPTPPKMTEYDKRCCCLREIQQTEEKYTDTLGSIQQHFMKPLQRFLKPQDMETIFVNIEELFSVHTHFLKELKDALAGPGATTLYQVFIKYKERFLVYGRYCSQVESASKHLDQVATAREDVQMKLEECSQRANNGRFTLRDLLMVPMQRVLKYHLLLQELVKHTQDATEKENLRLALDAMRDLAQCVNEVKRDNETLRQITNFQLSIENLDQSLANYGRPKIDGELKITSVERRSKTDRYAFLLDKALLICKRRGDSYDLKASVNLHSFQVRDDSSGERDNKKWSHMFLLIEDQGAQGYELFFKTRELKKKWMEQFEMAISNIYPENATANGHDFQMFSFEETTSCKACQMLLRGTFYQGYRCYRCRAPAHKECLGRVPPCGRHGQDFAGTMKKDKLHRRAQDKKRNELGLPKMEVFQEYYGIPPPPGAFGPFLRLNPGDIVELTKAEAEHNWWEGRNTATNEVGWFPCNRVHPYVHGPPQDLSVHLWYAGPMERAGAEGILTNRSDGTYLVRQRVKDTAEFAISIKYNVEVKHIKIMTSEGLYRITEKKAFRGLLELVEFYQQNSLKDCFKSLDTTLQFPYKEPERRAISKPPAGSTKYFGTAKARYDFCARDRSELSLKEGDIIKILNKKGQQGWWRGEIYGRIGWFPSNYVEEDYSEYC	soluble
MGSDKIHHHHHHGYQFTDVVKVPATPVKNQASTGTCWCFATTSFMESELLRMGKGTYDLSEMFIVRQKYMNQLQDNYVRQGRGNIGQGSLSHTFMNAFNQVGIVPEEVYSGINYDSDRHNHAEMVKYIKAIATTAVDMKKRSPEYYKLIDNLFDTYLGKLPEKFTYQGKEYTPKTFAASLGLNMDDYIELTSFTHHPYYQKFEVEVPDNWEHAQMYNLPLNEMMEVADYALNNGYTVCWDGDVSEKGFSFKNGVAINPEVKKVEDYSTTDRARFEKMDEKERLEEVYKFEKPFPEVNVTPQVRQEGFEAFVTTDDHLMHLTGIAKDQNGTKYYITKNSWGTERNTFGGYLNMSDSFVRAKTIYIMVHKDAIPKAIKSKLGI	not soluble
MGSDKIHHHHHHMYNVQTYKEKISRFEEVCFNWELKRASIVLNKRFSSYNSSAKVLLDAGFSLYAAKIEVCRELNNGEELERQYTYRSIAEGTLSEKDFKYIWEQCMSGSGNQTSILTIDEHFYSVQTELDKGWEKSCIVFYDKNEPIGMSIPHIETGTESEGRLFYFGVMLYYRGKGIASRLHLQSLHMLKEMGATYYIGSTHTSNEKMQRIFWRNNCSLKTEIELYYKIFNEG	not soluble
MKDTVKSLKQELQTITHWEHSQKDLWFWEKLGRLPFQVLDKLTPKVVHRKLGQLLDELGSYIQSGGQYLVNEGKVLDKLGVSSLAEVPHLPLETMDRVCDELIDARVTFAQLQGAATGIGGALTLAVDIPALLGLALKTLQEIAIVYGYDPKEKEERVFVVKCLQFAAADIVGKKAILDELSSFSNERGRVFSELQGWREVMMTFRDQYGWKKLFQAVPIIGVIFGSLFNKSFMEDIAETGKMLYRKRRIIEKLKQFEPGI	not soluble
MAKRVFIGATGQNCGKTTMSVSLMHLARQKYDRVGFIKPIGPKIEGYNGLTVDMDAILMARTFGLEEDLPLMNPVSLHKNFTRDFLSGKLDCNVLKTKILEAFEILDKKYDFLIIEGAGHGGVGSVIGLSNACVAHTLNAPVIIVTDSGIGSSIDAVHLNLALYEKEDADVRMLLVNKLRADKRESILSFLGKGFPGRPLKISGGFNYSPILANPTLSHIGKLLNLPVHGDPDGQSRIIHHIHLGAASAQRVVDALQESTLIVITSSRDELIVTLSSLYHIPAFREKIVGLVIAGHIPASEISQQILDDSNIPYIRVHDSTANVFTTLMEDVAKITAEDQEKLNWIRANAENEIDFEAIDALLLEHHHHHH	not soluble
MSLKNVTEKNREIYKQLNDRQEEISRLQRDLIQTKEQVSINSNKILVYESEMEQCKQRYQDLSQQQKDAQKKDIEKLTNEISDLKGKLSSAENANADLENKFNRLKKQAHEKLDASKKQQAALTNELNELKAIKDKLEQDLHFENAKVIDLDTKLKAHELQSEDVSRDHEKDTYRTLMEEIESLKKELQIFKTANSSSDAFEKLKVNMEKEKDRIIDERTKEFEKKLQETLNKSTSSEAEYSKDIETLKKEWLKEYEDETLRRIKEAEENLKKRIRLPSEERIQKIISKRKEELEEEFRKKLKENAGSLTFLDNKGSGEDAEEELWNSPSKGNSERPSAVAGFINQKNLKPQEQLKNVKNDVSFNDSQSMVTNKENNIVDSSAAGNKAIPTFSFGKPFFSSNTSSLQSFQNPFTASQSNINTNAPLRTLNIQPEVAVKAAINFSNVTDLTNNSTDGAKITEIGSTSKRPIESGTSSDPDTKKVKESPANDQASNEEGHHHHHH	soluble
MGHHHHHHSHMADQKKVSEAAKEREIKISSSDNEIFLVPRNVIRLSNTINTLLMDLGLDDEEGTNAEPIPVQNVTASILKKVISWCNHHHSDPISTEDSDNREKRTDDIGSWDVEFLKVDQGTLFELILAANYLDIKGLLDVTCKTVANMIKGKSPEEIRRTFNIKNDFTPEEEEQIRKENAWCED	soluble
MPQIYFSAAERRPKFVMKTGLSATEKNEVIKAAYRQIFERDITRAYSLSISDLESKVKNGDISMKEFVRRLAKSPLYQKQFYQPFINSRVIELAFRHILGRGPSSREEVQKYFSIISNGGLPALVDALVDSAEYSDYFGEETVPYLRGLEHHHHHH	soluble
MAHHHHHHMKDEQISCYYLTEKGKNKCFKNIKLITFDLDHTIWNIDALLNYADNECYKYMEQNYKRLYDYLSKEYALSMTNLVKELLERNIDMNKDGVQILTRIRTDALKYLAKQTNYDEIKFASEIQKLWKEKKKDVHLFISPGTLEYLRELKNRGYILGAITNGDSDVNEIKFLNEIFSFVVRSMDYNFAKPNVEIFNIAENLLKEKNINFHVDEWLHVGDDVYTDIMGAKNKNINCAWITMFREGREISHKEWYSYLKLKYEQNDNKQTLSQYDPYADGLFAKFRKKDVVLPFDYIDIEIRHCRDLDSILA	not soluble
MPYSSSGVGHNGFDKADLHIHTKCSDGLFTPEEIVHKAIHVGLKAISITDHDTVTGIDQAKPLALELGLELIPGVEMSSAYKGYDIHILGYFFDYQQSELKGYLDHCRLLRTERAERMVQKLAKMGVKIEIEQIIMKAQNGSVGRPHIAAVLQDEGFVKSFSEAFSKYLGSHSPAYVKSIETHPEEVIRLINEAGGLSFLAHPAQNVPDEILRQLISFGLDGLEIIHPSHDTYRQNYYREIANEYFLLFSGGSDYHGPKDHEDNFGQVWIPYEWVTKMKSRLAPAVKE	not soluble
MSLRIGVIGLGRIGTIHAENLKMIDDAILYAISDVREDRLREMKEKLGVEKAYKDPHELIEDPNVDAVLVCSSTNTHSELVIACAKAKKHVFCEKPLSLNLADVDRMIEETKKADVILFTGFNRRFDRNFKKLKEAVENGTIGKPHVLRITSRDPAPPPLDYIRVSGGIFLDMTIHDFDMARYIMGEEVEEVFADGSVLVDEEIGKAGDVDTAVVVLRFKSGALGVIDNSRRAVYGYDQRIEVFGSKGRIFADNVRETTVVLTDEQGDRGSRYLYFFLERYRDSYLEELKTFIKNVKSGEPPAVSGEDGKMALLLGYAAKKSLEEKRSVKLEEVIGEGHHHHHH	soluble
GPGSMMMQRSQKMLLDPASFIERPPRNTLFNIVPQGHEYVVERLGRYHRTLDSGWWVVVPFIDKIRYNYNVKEQGIEIPNQSAITSDNVMVEIDGVLFLKIVDSCKASYNIENPVFNLINLAQTTMRSEIGRMSLDSLFRERASLNQSTVEVLRREANEWGIECKRYEIRDIVVSELVRRSMDLQAEAERKKRKLILESEGESTATINRANGMKIAQQCVADAEKYTAERQSEGAAAAIRVKAAAVSDNISIVSDAIEKAK	not soluble
